Measurements: paper PMC2615086 (The Journal of Cell Biology, 2009)

Molecular target: T1, Fic1-His6 (S. pombe, UniProt O94701 1-272)
T1 sequence: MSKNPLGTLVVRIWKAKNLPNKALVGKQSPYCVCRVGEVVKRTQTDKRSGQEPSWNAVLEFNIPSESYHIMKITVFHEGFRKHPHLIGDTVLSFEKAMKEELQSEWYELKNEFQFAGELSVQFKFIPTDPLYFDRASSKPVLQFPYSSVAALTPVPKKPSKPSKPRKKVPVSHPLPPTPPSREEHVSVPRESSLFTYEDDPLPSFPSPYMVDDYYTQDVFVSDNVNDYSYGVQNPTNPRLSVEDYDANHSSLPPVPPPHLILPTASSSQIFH
Assay: quantitative in vitro binding

B1: MBP-Cdc15SH3 (domain or fragment)
chain: SSMSLYGEYNKSQPQLSMQRSVSPNPLGPNRRSSSVLQSQKSTSSNTSNRNNGGYSGSRPSSEMGHRYGSMSGRSMRQVSQRSTSRARSPEPTNRNSVQSKNVDPRATFTAEGEPILGYVIALYDYQAQIPEEISFQKGDTLMVLRTQEDGWWDGEIINVPNSKRGLFPSNFVQTV
For B1, the Kd was ~3000 nM.
